The numbers were not newly measured in patent US20250341526A1, “NOVEL DYES” (Quantum-Si Incorporated, priority 2024, published 2025), which cites them from elsewhere.

Sequences and labels used below:
B1: PS421: ClpS amino acid recognition protein, SEQ ID NO: 44 (protein)
chain: MTTPNKRPEFEPEIGLEDEVGEPRKYKVLLHNDDYTTMDFVVQVLIEVFRKSETEATHIMLTIHEKGVGTCGIYPAEVAETKINEVHTRARREGFPLRASMEEV
B2: PS432: ClpS amino acid recognition protein, SEQ ID NO: 55 (protein)
chain: MIGVEARTSSAPELAIETEIRLAGLWHVIVINDPVNLMSYVVMVLRKIFGFDDTKARKHMLEVHENGRSIVWSGEREPAEAYANTLHQWHLSAVLERDETD
B3: PS434: ClpS amino acid recognition protein, SEQ ID NO: 57 (protein)
chain: MSRLPWKQEAKFAATVIIDFPDATLEAPTIEKKEATEQQIEMPWNVVVHNDPVNLMSYVTMVFQRVFGYPRERAEKHMLEVHHSGRSILWSGLRERAELYVQQLHGYLLLATIEKTV
B4: PS411: ClpS amino acid recognition protein, SEQ ID NO: 34 (protein)
chain: MTRPDAPEYDDDLAVEPAEPELARPPLYKVVLHNDDFTPMEFVVEVLQEFFNMDSEQAVQVMLAVHTQGKATCGIFTRDIAETKSYQVNEYARECEHPLMCDIEAAD
B5: PS430: ClpS amino acid recognition protein, SEQ ID NO: 53 (protein)
chain: MQPFEETYTDVLDEVVDTDVHNLVVFNDDVNTFDHVIETLIDVCKHTPEQAEQCTLLIHYKGKCSVKNGSWEELVPMRNEICRRGISAEVLK
B6: PS433: ClpS amino acid recognition protein, SEQ ID NO: 56 (protein)
chain: MMSSLKECSIQALPSLDEKTKTEEDLSVPWKVIVLNDPVNLMSYVVMVFRKVFGYNENKATKHMMEVHQLGKSVLWTGQREEAECYAYQLQRWRLQTILEKDD
B7: PS424: ClpS amino acid recognition protein, SEQ ID NO: 47 (protein)
chain: MSVETIEKRSTTRKLAPQYRVLLHNDDYNSMEYVVQVLMTSVPSITQPQAVNIMMEAHNSGLALVITCAQEHAEFYCETLKGHGLSSTIEPD
B8: PS370: ClpS amino acid recognition protein, SEQ ID NO: 3 (protein)
chain: MFNSLGTVLDPKKSKAKYPEARVIVLDDNFNTFQHVANCLLAIIPRMCEQRAWDLTIKVDKAGSAEVWRGNLEQAELYHEQLFSKGLTMAPIEKT
B9: PS423: ClpS amino acid recognition protein, SEQ ID NO: 46 (protein)
chain: MAPTPAGAAVLDKQQQRRHKHASRYRVLLHNDPVNTMEYVVESLRQVVPQLSEQDAIAVMVEAHNTGVGLVIVCDIEPAEFYCEQLKTKGLTSSIEPED
B10: PS418: ClpS amino acid recognition protein, SEQ ID NO: 41 (protein)
chain: MSDHNIDHDTSVAVHLDVVVREPPMYRVVLLNDDFTPMEFVVELLMHFFRKTAEQATQIMLNIHHEGVGVCGTYPREIAETKVAQVHQHARTNGHPLKCRMEPS
B11: PS372: ClpS amino acid recognition protein, SEQ ID NO: 5 (protein)
chain: MAFPARGKTAPKNEVRRQPPYNVILLNDDDHTYRYVIEMLQKIFGFPPEKGFQIAEEVDRTGRVILLTTSKEHAELKQDQVHSYGPDPYLGRPCSGSMTCVIEPAV
B12: PS412: ClpS amino acid recognition protein, SEQ ID NO: 35 (protein)
chain: MATKREGSTLLEPTAAKVKPPPLYKVLLLNDDYTPMEFVVLVLKKFFGIDQERATQIMLKVHTEGVGVCGVYPRDIAHTKVEQVVDFARQHQHPLQCTMEES
B13: PS409: ClpS amino acid recognition protein, SEQ ID NO: 32 (protein)
chain: MPARLTDIEGEPNTDPVEDVLLADPELKKPQMYAVVMYNDDYTPMEFVVDVLQNHFKHTLDSAISIMLAIHQQGKGIAGIYPKDIAETKAQTVNRKARQAGYPLLSQIEPQG
B14: PS420: ClpS amino acid recognition protein, SEQ ID NO: 43 (protein)
chain: MSDYSNQISQAGSGVAEDASITLPPERKVVFYNDDFTTMEFVVDVLVSIFNKSHSEAEELMQTVHQEGSSVVGVYTYDIAVSRTNLTIQAARKNGFPLRVEVE
B15: PS426: ClpS amino acid recognition protein, SEQ ID NO: 49 (protein)
chain: MSIIEKTQENVAILEKVSINHEIILYNDDVNTFDHVIETLIRVCNHEELQAEQCAILVHYTGKCAVKTGSFDELQPLCLALLDAGLSAEIT
B16: PS422: ClpS amino acid recognition protein, SEQ ID NO: 45 (protein)
chain: MTQIKPQTIPDTDVISQTQSDWQMPDLYAVIMHNDDYTTMDFVVFLLNAVFDKPIEQAYQLMMQIHQTGRAVVAILPYEIAEMKVDEATSLAEQEQFPLFISIEQA
B17: PS425: ClpS amino acid recognition protein, SEQ ID NO: 48 (protein)
chain: MTHYFSNILRDQESPKINPKELEQIDVLEEKEHQIILYNDDVNTFEHVIDCLVKICEHNYLQAEQCAYIVHHSGKCSVKTGSLDELVPKCNALLEEGLSAEVV
B18: PS414: ClpS amino acid recognition protein, SEQ ID NO: 37 (protein)
chain: MQAAGNEPPDPQNPGDVGNGGDGGNQDGSNTGVVVKTRTRTRKPAMYKVLMLNDDYTPMEFVVHVLERFFQKNREEATRIMLHVHRRGVGVCGVYTYEVAETKVTQVMDLARQNQHPLQCTIEKE
B19: PS415: ClpS amino acid recognition protein, SEQ ID NO: 38 (protein)
chain: MALPETRTKIKPDVNIKEPPNYRVIYLNDDKTSMEFVIGSLMQHFSYPQQQAVEKTEEVHEHGSSTVAVLPYEMAEQKGIEVTLDARAEGFPLQVKIEPAER
B20: PS413: ClpS amino acid recognition protein, SEQ ID NO: 36 (protein)
chain: MMKQCGSYFLIKAVQDFKPLSKHRSDTDVITETKIQVKQPKLYTVIMYNDNYTTMDFVVYVLVEIFQHSIDKAYQLMMQIHESGQAAVALLPYDLAEMKVDEVTALAEQESYPLLTTIEPA
B21: PS419: ClpS amino acid recognition protein, SEQ ID NO: 42 (protein)
chain: MEKEQSLCKEKTHVELSEPKHYKVVFHNDDFTTMDFVVKVLQLVFFKSQLQAEDLTMKIHLEGSATAGIYSYDIAQSKAQKTTQMAREEGFPLRLTVEPEDN
B22: PS371: ClpS amino acid recognition protein, SEQ ID NO: 4 (protein)
chain: MATETIERPRTRDPGSGLGGHWLVIVLNDDHNTFDHVAKTLARVIPGVTVDDGYRFADQIHQRGQAIVWRGPKEPAEHYWEQLQDAGLSMAPLERH
B23: PS427: ClpS amino acid recognition protein, SEQ ID NO: 50 (protein)
chain: MSTKEKVKERVREKEAISFNNEIIVYNDDVNTFDHVIETLIRVCNHTPEQAEQCSLIVHYNGKCTVKTGSMDKLKPQCTQLLEAGLSAEIV
B24: PS417: ClpS amino acid recognition protein, SEQ ID NO: 40 (protein)
chain: MSNLDTDVLIDEKVKVVTTEPEKYRVILLNDDVTPMDFVINILVSIFKHSTDTAKDLTLKIHKEGSAIVGVYTYEIAEQKGIEATNESRQHGFPLQVKIERENTL
B25: PS410: ClpS amino acid recognition protein, SEQ ID NO: 33 (protein)
chain: MGDDDQSSREGEGDVAFQTADPELKRPSLYRVVLLNDDYTPMEFVVHILEQFFAMNREKATQVMLAVHTQGKGVCGVYTKDIAETKAALVNDYSRENQHPLLCEVEELDDESR
B26: PS416: ClpS amino acid recognition protein, SEQ ID NO: 39 (protein)
chain: MTSQTDTLVKPNIQPPSLFKVIYINDSVTTMEFVVESLMSVFNHSADEATRLTQLVHEEGAAVVAILPYELAEQKGMEVTLLARNNGFPLAIRLEPAV

This data set concerns amino acid at a terminal position of a polypeptide. The following applies: Table 1, ClpS proteins; amino acid at terminal position; inferred from literature and/or demonstrated by the inventors; cited from earlier work.
B1: the “Binding Pref.” value was “F, Y, W, L”. Take B2: the “Binding Pref.” value is on record as “F, W”. For the molecule B3, the “Binding Pref.” value was “F, Y, W, L”. With B4, the “Binding Pref.” value is “F, Y, W, L”. As for B5, the “Binding Pref.” value is “F, Y, W, L”. As to B6, the “Binding Pref.” value is reported as “F, Y, W, L”.

B7: the “Binding Pref.” value is “F, Y, W”.

For the molecule B8, the “Binding Pref.” value is “F, L”. Regarding B9, the “Binding Pref.” value is listed as “F, Y, W”.

For the molecule B10, the “Binding Pref.” value is reported as “F, Y, W, L”. Turning to B11, the “Binding Pref.” value is on record as “L, I, V”. As for B12, the “Binding Pref.” value was “F, Y, W, L”. Consider B13, for which the “Binding Pref.” value is “F, Y, W, L”. Consider B14, for which the “Binding Pref.” value is listed as “F, Y, W, L”. Take B15: the “Binding Pref.” value is “F, Y, W, L”. With B16, the “Binding Pref.” value is given as “F, Y, W, L”.

Regarding B17, the “Binding Pref.” value was “F, Y, W, L”.

On to B18, for which the “Binding Pref.” value is “F, Y, W, L”.

B19: the “Binding Pref.” value is on record as “F, Y, W”. Take B20: the “Binding Pref.” value is listed as “F, Y, W, L”. For the molecule B21, the “Binding Pref.” value is “F, Y, W, L”. On to B22, for which the “Binding Pref.” value is “F, Y, W, L”. On to B23, for which the “Binding Pref.” value is on record as “F, W”. B24: the “Binding Pref.” value is given as “F, Y, W”.

B25: the “Binding Pref.” value is recorded as “F, W, L”. Turning to B26, the “Binding Pref.” value is recorded as “F, Y, W, L”.
